The labels stand for the following.
B1: NRC3_wobSeed121_DR5_C7A_o1 (dsDNA)
DNA 1: GCCAAAATAGGTCACCGGAAGGTCAAAGTCCGCATGGCGATTGACAGCGTAGAATGAAGG
DNA 2: CCTTCATTCTACGCTGTCAATCGCCATGCGGACTTTGACCTTCCGGTGACCTATTTTGGC
B2: NRC3_wobSeed82_DR3_G14A_o1 (dsDNA)
DNA 1: GCATCGAAAGGTCAACGAGGTGAGTATACACCGTTTGCGATTGACAGCGTAGAATGAAGG
DNA 2: CCTTCATTCTACGCTGTCAATCGCAAACGGTGTATACTCACCTCGTTGACCTTTCGATGC
B3: NRC3_wobSeed25_DR1_C7A_o1 (dsDNA)
DNA 1: GCCAAAATAGGTCAAAGGTCAAAGTCGAGCCAACCAGCGATTGACAGCGTAGAATGAAGG
DNA 2: CCTTCATTCTACGCTGTCAATCGCTGGTTGGCTCGACTTTGACCTTTGACCTATTTTGGC
B4: NRC3_wobSeed37_DR1_C7A_o1 (dsDNA)
DNA 1: GCCGTCAAAGGTCAAAGGTCAGTGAAGAGATGACGGGCGATTGACAGCGTAGAATGAAGG
DNA 2: CCTTCATTCTACGCTGTCAATCGCCCGTCATCTCTTCACTGACCTTTGACCTTTGACGGC
B5: NRC3_random_hg19_428_o1 (dsDNA)
DNA 1: GCGAGATTGGAAGGCTTCCAGATGCAAGGCTGTGGCGCGATTGACAGCGTAGAATGAAGG
DNA 2: CCTTCATTCTACGCTGTCAATCGCGCCACAGCCTTGCATCTGGAAGCCTTCCAATCTCGC
B6: NRC3_wobSeed66_DR2_A17G_o1 (dsDNA)
DNA 1: GCAATACAGGGTCACTGGGCCAGAGTAGGTACGAATGCGATTGACAGCGTAGAATGAAGG
DNA 2: CCTTCATTCTACGCTGTCAATCGCATTCGTACCTACTCTGGCCCAGTGACCCTGTATTGC
B7: NRC3_wobSeed89_DR3_G16T_o1 (dsDNA)
DNA 1: GCCTATGTAGGTTAATGGGGTCATTCAGTTTGAAAGGCGATTGACAGCGTAGAATGAAGG
DNA 2: CCTTCATTCTACGCTGTCAATCGCCTTTCAAACTGAATGACCCCATTAACCTACATAGGC
B8: NRC3_wobSeed101_DR4_C18T_o1 (dsDNA)
DNA 1: GCCCTTACGGGTCACTCTAGGTTATAGCATCGGAGTGCGATTGACAGCGTAGAATGAAGG
DNA 2: CCTTCATTCTACGCTGTCAATCGCACTCCGATGCTATAACCTAGAGTGACCCGTAAGGGC
B9: NRC3_wobSeed5_DR0_C4T_o1 (dsDNA)
DNA 1: GCCTTTACGGGTCAAGGTTATAGCACGGGTGGTACGGCGATTGACAGCGTAGAATGAAGG
DNA 2: CCTTCATTCTACGCTGTCAATCGCCGTACCACCCGTGCTATAACCTTGACCCGTAAAGGC
B10: NRC3_wobSeed5_DR0_G9A_o1 (dsDNA)
DNA 1: B9 DNA 1 with T4C, G9A
DNA 2: B9 DNA 2 with C52T, A57G
B11: NRC3_wobSeed130_DR5_T29C_o1 (dsDNA)
DNA 1: GCCTCGAAAGGTCGTGCTCAGGTGAGTACACCAAACGCGATTGACAGCGTAGAATGAAGG
DNA 2: CCTTCATTCTACGCTGTCAATCGCGTTTGGTGTACTCACCTGAGCACGACCTTTCGAGGC
B12: NRC3_wobSeed82_DR3_A15T_o1 (dsDNA)
DNA 1: B2 DNA 1 with A14G, A15T
DNA 2: B2 DNA 2 with T46A, T47C
B13: NRC3_wobSeed61_DR2_T5C_o1 (dsDNA)
DNA 1: GCCGCCCAAGGTCAGCAGGTCAGTGAAAGCGACGTGGCGATTGACAGCGTAGAATGAAGG
DNA 2: CCTTCATTCTACGCTGTCAATCGCCACGTCGCTTTCACTGACCTGCTGACCTTGGGCGGC
B14: NRC3_wobSeed113_DR4_T8G_o1 (dsDNA)
DNA 1: GCATATGGAGGTTAGCTGGGGTCATTCAGACTAGGCGCGATTGACAGCGTAGAATGAAGG
DNA 2: CCTTCATTCTACGCTGTCAATCGCGCCTAGTCTGAATGACCCCAGCTAACCTCCATATGC
B15: NRC3_wobSeed45_DR1_A8G_o1 (dsDNA)
DNA 1: GCTGTCAGAGTTCAAAGGTAACGTAAGTATCCACACGCGATTGACAGCGTAGAATGAAGG
DNA 2: CCTTCATTCTACGCTGTCAATCGCGTGTGGATACTTACGTTACCTTTGAACTCTGACAGC
B16: NRC3_wobSeed137_DR5_A5G_o1 (dsDNA)
DNA 1: GCATGTGTAGGTTACATCCGGGTCATTCAGGCTATGGCGATTGACAGCGTAGAATGAAGG
DNA 2: CCTTCATTCTACGCTGTCAATCGCCATAGCCTGAATGACCCGGATGTAACCTACACATGC
B17: NRC3_wobSeed137_DR5_T6C_o1 (dsDNA)
DNA 1: B16 DNA 1 with G5A, T6C
DNA 2: B16 DNA 2 with A55G, C56T
B18: NRC3_wobSeed106_DR4_G23C_o1 (dsDNA)
DNA 1: GCCTCGAAAGGTCGGTTGAGGTCAGTATACGGATAAGCGATTGACAGCGTAGAATGAAGG
DNA 2: CCTTCATTCTACGCTGTCAATCGCTTATCCGTATACTGACCTCAACCGACCTTTCGAGGC
B19: NRC3_wobSeed25_DR1_A6G_o1 (dsDNA)
DNA 1: B3 DNA 1 with A6G, A7C
DNA 2: B3 DNA 2 with T54G, T55C
B20: NRC3_wobSeed37_DR1_C7T_o1 (dsDNA)
DNA 1: B4 DNA 1 with A7T
DNA 2: B4 DNA 2 with T54A
B21: NRC3_wobSeed50_DR2_C25T_o1 (dsDNA)
DNA 1: GCCCTAGTTGGTCAGGAGGTCACATACCGGATATGAGCGATTGACAGCGTAGAATGAAGG
DNA 2: CCTTCATTCTACGCTGTCAATCGCTCATATCCGGTATGTGACCTCCTGACCAACTAGGGC

Where a chain is given by its changes, count along the chain named.

Sequence of LXRa:RXRa (Q13133 whole entry, chain 1 of 2): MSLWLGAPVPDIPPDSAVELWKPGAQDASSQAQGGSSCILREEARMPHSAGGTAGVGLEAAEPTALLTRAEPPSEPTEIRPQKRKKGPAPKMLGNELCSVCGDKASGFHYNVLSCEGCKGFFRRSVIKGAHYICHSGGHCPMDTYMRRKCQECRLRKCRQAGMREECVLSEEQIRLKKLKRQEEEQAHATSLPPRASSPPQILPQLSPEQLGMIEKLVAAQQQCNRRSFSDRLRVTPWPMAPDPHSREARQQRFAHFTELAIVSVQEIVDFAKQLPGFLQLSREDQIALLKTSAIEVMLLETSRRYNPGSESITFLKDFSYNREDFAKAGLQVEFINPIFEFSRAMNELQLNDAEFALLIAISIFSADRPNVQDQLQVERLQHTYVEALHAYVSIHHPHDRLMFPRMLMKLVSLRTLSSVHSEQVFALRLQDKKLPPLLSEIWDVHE
Sequence of LXRa:RXRa (P19793 whole entry, chain 2 of 2): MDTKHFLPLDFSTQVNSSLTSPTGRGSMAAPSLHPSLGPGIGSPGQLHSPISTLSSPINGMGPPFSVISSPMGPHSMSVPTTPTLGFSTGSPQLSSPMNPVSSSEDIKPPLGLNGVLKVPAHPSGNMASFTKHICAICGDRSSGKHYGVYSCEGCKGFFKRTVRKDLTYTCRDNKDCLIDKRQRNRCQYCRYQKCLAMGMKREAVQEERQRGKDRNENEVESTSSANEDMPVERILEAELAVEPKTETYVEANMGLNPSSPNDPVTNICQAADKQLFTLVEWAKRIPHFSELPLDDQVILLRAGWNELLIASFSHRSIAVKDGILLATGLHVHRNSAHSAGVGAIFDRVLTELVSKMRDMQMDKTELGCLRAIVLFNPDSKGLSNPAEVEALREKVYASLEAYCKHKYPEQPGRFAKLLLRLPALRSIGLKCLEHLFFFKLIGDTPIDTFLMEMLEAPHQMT
Sequence of LXRb:RXRa (P55055 whole entry, chain 1 of 2): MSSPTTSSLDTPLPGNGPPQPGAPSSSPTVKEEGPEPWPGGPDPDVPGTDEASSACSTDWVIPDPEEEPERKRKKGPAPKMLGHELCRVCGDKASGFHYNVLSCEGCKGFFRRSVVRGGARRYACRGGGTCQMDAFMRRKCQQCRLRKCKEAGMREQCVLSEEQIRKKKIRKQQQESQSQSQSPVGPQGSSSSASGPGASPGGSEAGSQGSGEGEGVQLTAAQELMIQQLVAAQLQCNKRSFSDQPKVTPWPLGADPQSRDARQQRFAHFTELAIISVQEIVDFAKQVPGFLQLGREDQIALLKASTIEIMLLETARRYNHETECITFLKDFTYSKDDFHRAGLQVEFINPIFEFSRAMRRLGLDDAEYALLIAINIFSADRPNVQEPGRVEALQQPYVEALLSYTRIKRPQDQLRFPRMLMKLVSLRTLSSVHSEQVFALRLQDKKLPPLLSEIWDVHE
Sequence of LXRb:RXRa (P19793 whole entry, chain 2 of 2): as the sequence (P19793 whole entry, chain 2 of 2) above
Sequence of RARg:RXRa (P13631 whole entry, chain 1 of 2): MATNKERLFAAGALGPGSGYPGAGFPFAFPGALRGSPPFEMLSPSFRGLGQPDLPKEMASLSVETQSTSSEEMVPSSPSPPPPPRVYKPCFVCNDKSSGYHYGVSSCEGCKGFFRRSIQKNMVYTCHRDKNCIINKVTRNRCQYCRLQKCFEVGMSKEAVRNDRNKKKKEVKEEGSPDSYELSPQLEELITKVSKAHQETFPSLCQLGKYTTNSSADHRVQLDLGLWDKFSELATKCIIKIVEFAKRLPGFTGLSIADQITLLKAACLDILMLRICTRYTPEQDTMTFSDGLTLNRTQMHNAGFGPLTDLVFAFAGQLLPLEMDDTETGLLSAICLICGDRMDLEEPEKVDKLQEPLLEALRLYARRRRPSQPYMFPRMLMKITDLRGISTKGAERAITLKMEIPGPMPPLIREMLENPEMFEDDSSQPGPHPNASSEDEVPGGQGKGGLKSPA
Sequence of RARg:RXRa (P19793 whole entry, chain 2 of 2): as the sequence (P19793 whole entry, chain 2 of 2) above
Sequence of RXRa (P19793 whole entry): as the sequence (P19793 whole entry, chain 2 of 2) above
Sequence of FXR:RXRa (Q96RI1 whole entry, chain 1 of 2): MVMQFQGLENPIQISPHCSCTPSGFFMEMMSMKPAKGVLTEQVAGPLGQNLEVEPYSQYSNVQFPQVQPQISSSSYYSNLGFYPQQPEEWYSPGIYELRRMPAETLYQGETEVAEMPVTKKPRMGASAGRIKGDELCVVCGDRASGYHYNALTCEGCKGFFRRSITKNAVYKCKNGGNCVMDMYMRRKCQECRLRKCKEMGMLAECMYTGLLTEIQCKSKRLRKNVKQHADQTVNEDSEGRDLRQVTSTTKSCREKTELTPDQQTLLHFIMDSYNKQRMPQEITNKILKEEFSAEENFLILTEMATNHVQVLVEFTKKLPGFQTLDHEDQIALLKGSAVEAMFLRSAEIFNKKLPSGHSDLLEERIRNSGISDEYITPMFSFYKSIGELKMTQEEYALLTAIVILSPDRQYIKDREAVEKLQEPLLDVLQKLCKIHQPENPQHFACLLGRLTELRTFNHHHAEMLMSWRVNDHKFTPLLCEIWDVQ
Sequence of FXR:RXRa (P19793 whole entry, chain 2 of 2): as the sequence (P19793 whole entry, chain 2 of 2) above
Sequence of PPARa:RXRa (Q07869 whole entry, chain 1 of 2): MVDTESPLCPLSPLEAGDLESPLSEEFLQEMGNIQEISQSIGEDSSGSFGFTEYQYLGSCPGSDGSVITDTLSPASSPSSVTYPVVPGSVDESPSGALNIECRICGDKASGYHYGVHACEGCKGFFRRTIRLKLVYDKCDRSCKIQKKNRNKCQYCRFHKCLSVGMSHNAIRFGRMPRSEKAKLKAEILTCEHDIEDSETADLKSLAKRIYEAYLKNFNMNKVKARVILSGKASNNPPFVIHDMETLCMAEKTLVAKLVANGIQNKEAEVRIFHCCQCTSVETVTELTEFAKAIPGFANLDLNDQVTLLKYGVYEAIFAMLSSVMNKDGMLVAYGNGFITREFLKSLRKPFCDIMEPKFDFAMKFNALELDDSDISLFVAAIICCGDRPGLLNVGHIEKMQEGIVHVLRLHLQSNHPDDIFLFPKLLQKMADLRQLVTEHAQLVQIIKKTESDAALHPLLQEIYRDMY
Sequence of PPARa:RXRa (P19793 whole entry, chain 2 of 2): as the sequence (P19793 whole entry, chain 2 of 2) above

One series addresses RXRa (Homo sapiens, UniProt P19793). Put plainly: no ligand; PBM; 180 nM; PBS pH 7.4, 2% milk, 0.02% Triton X-100, 1 mM DTT, BSA, 0.4 mg/ml salmon testes DNA. Particulars: tags: His cleaved; chain copies: 2; label: surface-attached array probe.
Regarding B1, the binding signal was 7.97 PBM z-score against 500 random probes.
As for B2, the binding signal was 8.25 PBM z-score against 500 random probes.
Take B3: the binding signal is 10.9 PBM z-score against 500 random probes.
With B4, the binding signal was 11 PBM z-score against 500 random probes.

The target in another series is RARb:RXRa (Homo sapiens, UniProt P10826;P19793 full;full). Put plainly: no ligand; PBM; 270 nM : 90 nM RXRa; PBS pH 7.4, 2% milk, 0.02% Triton X-100, 1 mM DTT, BSA, 0.4 mg/ml salmon testes DNA. Particulars: tags: His kept;His cleaved; copies: 1;1; label: surface-attached array probe. In short, it runs like this: (§1)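 Binding buffer was PBS pH 7.4 with 2% milk, 0.02% Triton X-100, 1 mM DTT, 0.2 mg/mL BSA and 0.4 mg/ml salmon testes DNA. In it, ligand-free nuclear receptor dimers were incubated 1 h on custom Agilent 4×180K protein-binding microarrays carrying double-stranded probes. Antibodies against each partner (one per run) detected binding, and z-scores were calculated against random background probes after regression normalization of scanned fluorescence.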
Sequence of RARb:RXRa (P10826 whole entry, chain 1 of 2): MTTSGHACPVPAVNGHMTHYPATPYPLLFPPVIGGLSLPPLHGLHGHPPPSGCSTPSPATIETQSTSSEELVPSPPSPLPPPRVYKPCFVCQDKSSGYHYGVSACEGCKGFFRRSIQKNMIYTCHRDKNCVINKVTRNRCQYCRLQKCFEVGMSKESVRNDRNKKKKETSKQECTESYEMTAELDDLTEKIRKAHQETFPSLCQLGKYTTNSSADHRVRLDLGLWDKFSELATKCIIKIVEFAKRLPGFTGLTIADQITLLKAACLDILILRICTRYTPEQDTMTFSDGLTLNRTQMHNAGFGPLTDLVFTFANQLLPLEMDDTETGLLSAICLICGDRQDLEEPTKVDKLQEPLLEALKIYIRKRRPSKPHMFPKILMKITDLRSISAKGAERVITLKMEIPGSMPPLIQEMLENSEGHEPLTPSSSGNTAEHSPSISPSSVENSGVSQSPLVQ
Sequence of RARb:RXRa (P19793 whole entry, chain 2 of 2): as the sequence (P19793 whole entry, chain 2 of 2) above
B1: the binding signal is 5.81 PBM z-score against 500 random probes.
Still for that read-out and setting: as for B2, the figure is 6.1 PBM z-score against 500 random probes; as for B3, 6.18 PBM z-score against 500 random probes.
On the same count and under the same terms, as for B4, the figure is 6.32 PBM z-score against 500 random probes.

In a further series the target is VDR:RXRa (Homo sapiens, UniProt P11473;P19793 full;full). The description is as above. Particulars: tags: His kept;His cleaved; copies: 1;1; label: surface-attached array probe. In short, it runs like this: as §1
Sequence of VDR:RXRa (P11473 whole entry, chain 1 of 2): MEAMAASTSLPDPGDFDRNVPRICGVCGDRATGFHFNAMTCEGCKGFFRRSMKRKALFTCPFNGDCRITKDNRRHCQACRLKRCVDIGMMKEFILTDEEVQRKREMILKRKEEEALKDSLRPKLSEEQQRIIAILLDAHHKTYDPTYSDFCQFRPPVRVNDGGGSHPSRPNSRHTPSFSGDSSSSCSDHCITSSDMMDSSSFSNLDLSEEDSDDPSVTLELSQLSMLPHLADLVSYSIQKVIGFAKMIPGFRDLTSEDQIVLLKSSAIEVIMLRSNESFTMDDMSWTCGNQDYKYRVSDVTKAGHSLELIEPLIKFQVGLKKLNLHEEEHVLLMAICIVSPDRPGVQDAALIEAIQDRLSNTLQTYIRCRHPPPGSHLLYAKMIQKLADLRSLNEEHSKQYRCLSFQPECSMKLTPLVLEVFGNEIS
Sequence of VDR:RXRa (P19793 whole entry, chain 2 of 2): as the sequence (P19793 whole entry, chain 2 of 2) above
As for B1, the binding signal was 6.58 PBM z-score against 500 random probes.
For B2, the binding signal is 7.33 PBM z-score against 500 random probes.
In the case of B5, the binding signal is -1.12 PBM z-score against 500 random probes.
In the case of B3, the binding signal was 7.13 PBM z-score against 500 random probes.
On the same count and under the same terms, in the case of B4 it was 7.1 PBM z-score against 500 random probes.

In another series the target is LXRa:RXRa (Homo sapiens, UniProt Q13133;P19793 full;full). The description is as above. The following applies: tags: His kept;His cleaved; copies: 1;1; label: surface-attached array probe. The gist of the method:
as §1
As for B1, the binding signal was 7 PBM z-score against 500 random probes.
On the same count and under the same terms, as for B2, the figure is 7.22 PBM z-score against 500 random probes.
For the molecule B5, the binding signal is -1.14 PBM z-score against 500 random probes.
Turning to B3, the binding signal is 7.77 PBM z-score against 500 random probes.
Turning to B4, the binding signal was 7.91 PBM z-score against 500 random probes.

A further series concerns the target PPARa:RXRa (Homo sapiens, UniProt Q07869;P19793 full;full). Described as above. Particulars: tags: GST kept;His cleaved; copies: 1;1; label: surface-attached array probe. The gist of the method:
as §1
Turning to B2, the binding signal is 6.87 PBM z-score against 500 random probes.
Consider B4, for which the binding signal is 7.54 PBM z-score against 500 random probes.

The next series concerns the target LXRb:RXRa (Homo sapiens, UniProt P55055;P19793 full;full). The description is as above. The following applies: tags: His kept;His cleaved; copies: 1;1; label: surface-attached array probe. In short, it runs like this: as §1
For B1, the binding signal was 6.15 PBM z-score against 500 random probes.
For the molecule B2, the binding signal is 6.3 PBM z-score against 500 random probes.
Consider B5, for which the binding signal is -1.31 PBM z-score against 500 random probes.
Consider B3, for which the binding signal is 7.8 PBM z-score against 500 random probes.
Regarding B4, the binding signal is 7.7 PBM z-score against 500 random probes.

In a further series the target is FXR:RXRa (Homo sapiens, UniProt Q96RI1;P19793 full;full). Described as above. The following applies: tags: His kept;His cleaved; copies: 1;1; label: surface-attached array probe. The gist of the method:
as §1
As to B2, the binding signal was 8.61 PBM z-score against 500 random probes.
With B3, the binding signal was 8.93 PBM z-score against 500 random probes.
As to B4, the binding signal is 9.14 PBM z-score against 500 random probes.

The target in a further series is PXR:RXRa (Homo sapiens, UniProt O75469;P19793 full;full). Described as above. The following applies: tags: His kept;His cleaved; copies: 1;1; label: surface-attached array probe. In short, it runs like this: as §1
Sequence of PXR:RXRa (O75469 whole entry, chain 1 of 2): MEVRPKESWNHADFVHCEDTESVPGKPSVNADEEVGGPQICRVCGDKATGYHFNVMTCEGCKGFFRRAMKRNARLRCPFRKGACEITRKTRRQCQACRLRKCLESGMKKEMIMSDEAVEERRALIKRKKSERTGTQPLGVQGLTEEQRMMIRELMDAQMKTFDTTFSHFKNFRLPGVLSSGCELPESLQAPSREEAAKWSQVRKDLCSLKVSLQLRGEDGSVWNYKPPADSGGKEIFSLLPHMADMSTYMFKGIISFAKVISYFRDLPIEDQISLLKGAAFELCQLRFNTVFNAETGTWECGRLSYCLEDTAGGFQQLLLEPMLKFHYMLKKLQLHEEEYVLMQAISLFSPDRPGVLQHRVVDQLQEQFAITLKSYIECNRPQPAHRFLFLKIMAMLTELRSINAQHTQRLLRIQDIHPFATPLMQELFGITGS
Sequence of PXR:RXRa (P19793 whole entry, chain 2 of 2): as the sequence (P19793 whole entry, chain 2 of 2) above
Turning to B6, the binding signal was 3.74 PBM z-score against 500 random probes.
B7: the binding signal is 6.66 PBM z-score against 500 random probes.
Regarding B8, the binding signal was 3.67 PBM z-score against 500 random probes.
Still for that read-out and setting: in the case of B9 it was 3.7 PBM z-score against 500 random probes; in that of B10, 3.62 PBM z-score against 500 random probes; in that of B11, 3.76 PBM z-score against 500 random probes.
On to B12, for which the binding signal was 3.66 PBM z-score against 500 random probes.
Still for that read-out and setting: as for B13, the figure is 3.73 PBM z-score against 500 random probes.
Regarding B14, the binding signal was 6.8 PBM z-score against 500 random probes.
B15: the binding signal was 6.41 PBM z-score against 500 random probes.
In the case of B16, the binding signal is 3.72 PBM z-score against 500 random probes.
Same read-out and setting: as for B17, the figure is 3.61 PBM z-score against 500 random probes.
B18: the binding signal was 6.52 PBM z-score against 500 random probes.
In the case of B19, the binding signal was 7.42 PBM z-score against 500 random probes.
For the molecule B20, the binding signal was 7.41 PBM z-score against 500 random probes.
For the molecule B21, the binding signal was 3.69 PBM z-score against 500 random probes.

Another series concerns the target RARg:RXRa (Homo sapiens, UniProt P13631;P19793 full;full). The series is described as above. The following applies: tags: His kept;His cleaved; copies: 1;1; label: surface-attached array probe. In short, it runs like this: as §1
Take B1: the binding signal is 9.04 PBM z-score against 500 random probes.
On to B2, for which the binding signal was 7.92 PBM z-score against 500 random probes.
For the molecule B3, the binding signal was 9.5 PBM z-score against 500 random probes.
As for B4, the binding signal was 9.63 PBM z-score against 500 random probes.

Source of the values: article PMC6555819, “Comprehensive study of nuclear receptor DNA binding provides a revised framework for understanding receptor specificity”.
